Results from patent US20040049009A1, “Methods for improving the antagonistic/agonistic properties of peptidic antagonists/agonists of the corticotropin-releasing factor receptor (crfr)” (priority 2000, published 2004).

What was measured:
[1] = target: T1, rat CRF binding protein C-terminally fused with a His6 sequence (rat) (UniProt P24388); test: SPA competition with 0.1 nM [125I-Tyr0]h/rCRF, His-tagged rCRFBP; 95% CI (76-104)
T1 sequence: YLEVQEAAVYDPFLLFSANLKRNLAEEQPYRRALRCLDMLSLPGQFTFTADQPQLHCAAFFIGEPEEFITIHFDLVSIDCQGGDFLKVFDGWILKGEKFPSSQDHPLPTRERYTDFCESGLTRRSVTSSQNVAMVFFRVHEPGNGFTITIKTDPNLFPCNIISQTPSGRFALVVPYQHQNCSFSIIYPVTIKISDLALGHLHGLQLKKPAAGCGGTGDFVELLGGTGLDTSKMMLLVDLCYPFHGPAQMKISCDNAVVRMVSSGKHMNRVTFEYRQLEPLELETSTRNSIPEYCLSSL

[2] = target: mouse CRF receptor, type 2β (mouse) (UniProt Q60748)
[3] = target: rat CRF receptor, type 1 (rat) (UniProt P35353)
[4] = target: T1, rat CRF binding protein C-terminally fused with a His6 sequence (rat); test: SPA competition with 0.1 nM [125I-Tyr0]h/rCRF, His-tagged rCRFBP; 95% CI (70-90)
[5] = target: rat CRF receptor, type 1 (rat) (UniProt P35353); test: SPA competition with 0.05 nM [125I-Tyr0]h/rCRF, HEK-293 membranes; 95% CI (0.44-0.79)
[6] = target: mouse CRF receptor, type 2β (mouse) (UniProt Q60748); test: SPA competition with 0.05 nM [125I-Tyr0]Svg, HEK-293 membranes; 95% CI (15-18)
[7] = target: T1, rat CRF binding protein C-terminally fused with a His6 sequence (rat); test: SPA competition with 0.1 nM [125I-Tyr0]h/rCRF, His-tagged rCRFBP; 95% CI (0.60-1.3)
[8] = target: T1, rat CRF binding protein C-terminally fused with a His6 sequence (rat); test: SPA competition with 0.1 nM [125I-Tyr0]h/rCRF, His-tagged rCRFBP; 95% CI (0.9-1.0)
[9] = target: mouse CRF receptor, type 2β (mouse) (UniProt Q60748); test: SPA competition with 0.05 nM [125I-Tyr0]Svg, HEK-293 membranes; 95% CI (0.24-1.36)
[10] = target: rat CRF receptor, type 1 (rat) (UniProt P35353); test: SPA competition with 0.05 nM [125I-Tyr0]h/rCRF, HEK-293 membranes; 95% CI (0.65-1.4)
Target sequence in this assay (P35353 24-415): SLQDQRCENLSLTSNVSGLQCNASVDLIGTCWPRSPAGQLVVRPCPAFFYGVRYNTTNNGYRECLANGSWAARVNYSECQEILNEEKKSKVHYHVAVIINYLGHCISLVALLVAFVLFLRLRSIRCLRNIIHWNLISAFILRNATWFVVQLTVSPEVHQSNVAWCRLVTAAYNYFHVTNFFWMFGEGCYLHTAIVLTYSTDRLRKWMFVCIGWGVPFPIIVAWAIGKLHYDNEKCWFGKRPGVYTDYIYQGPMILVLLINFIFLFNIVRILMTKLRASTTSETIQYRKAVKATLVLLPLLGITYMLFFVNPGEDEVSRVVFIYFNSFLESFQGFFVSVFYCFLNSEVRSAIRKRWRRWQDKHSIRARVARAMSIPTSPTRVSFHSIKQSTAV

[11] = target: mouse CRF receptor, type 2β (mouse) (UniProt Q60748); test: SPA competition with 0.05 nM [125I-Tyr0]Svg, HEK-293 membranes; 95% CI (110-300)

Chain of ovine corticotropin-releasing factor (ligand) (P01142 148-188): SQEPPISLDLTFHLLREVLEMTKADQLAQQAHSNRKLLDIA

Substance	Rel. intrinsic activity [%] [2]	Rel. potency of antagonist [%] [2]	Rel. intrinsic activity [%] [3]	Rel. potency of antagonist [%] [3]	also measured
astressin (peptide)	1.1%	99%	9.8%	86%	IC50 [1]: 90 nM
[Glu^22]h/rCRF (from UniProt P06850) (peptide)					IC50 [4]: 80 nM; IC50 [5]: 0.61 nM; IC50 [6]: 16 nM
[Ala^21]Svg (from UniProt P01144) (peptide)					IC50 [7]: 0.94 nM
[Glu^11,16]Ast (peptide)	1%	97%			
α-helical CRF^9-41 (peptide)	1.4%	97%	19%	14%	IC50 [8]: 1 nM
anti-sauvagine-30 (peptide)	1%	99%	6.5%	2%	IC50 [9]: 0.3 nM
ovine corticotropin-releasing factor (ligand)					IC50 [10]: 1 nM; IC50 [11]: 200 nM
